Two molecules from publication PMC11468923, “Mechanism of degrader-targeted protein ubiquitinability” (Science Advances, 2024) can be followed below.

For test [1], the target named is T1, wild-type ubiquitin (donor ubiquitin, Ub^D) (human, UniProt P0CG48 1-76, C terminus isopeptide-linked to K93 of UBE2R1(C93K, S138C, C191S, C223S)).
T1 construct: wild-type ubiquitin, the cut product of its precursor; Stood in the closed cryo-EM sample as part of the cross-linked conjugate m8
Briefly: cryo-EM structure; closed cross-linked sample: 6 uM NEDD8-CRL2^VHL (1 equiv), MZ1 (1.5 equiv) and Brd4^BD2-Ub(G76S,K48C)-UBE2R1(C93K, S138C, C191S, C223S)-Ub (1.5 equiv), 10 min at 4 C; 20 mM Hepes, 150 mM NaCl, 0.5 mM TCEP, pH 7.5; Krios 300 keV; ~3.7 A. The note with it: both partners purified.

For test [2], the target named is T2, ^15N-labeled ubiquitin (human wild-type Ub residues 1 to 76) (human, UniProt P0CG48 1-76, uniformly ^15N-labeled; C terminus isopeptide-linked to K93 of UBE2R1(C93K) in the conjugate sample).
T2 construct: ubiquitin, human wild type, residues 1 to 76; also called ^15N-Ub; Ub(^15N); source: E. coli BL21(DE3) Rosetta II, ^15N autoinducing media, purified (His-Trap, TEV, SEC); not shown: His6, N-terminal, cleaved
Briefly: NMR 15N-1H HSQC chemical shift perturbation; ^15N-Ub free against ^15N-Ub isopeptide-linked to UBE2R1(C93K); 150 uM, 298 K, 600 MHz; 20 mM sodium phosphate, 150 mM NaCl, 0.5 mM TCEP, 5% D2O, pH 7.0. To be noted: both partners purified.

Residue numbers refer to the chain shown, from its start. Names and notes keep the numbering of the source.

B1: UBE2R1(C93K, S138C, C191S, C223S) (enzyme, human, UniProt P49427 1-236, looked up)
chain: MARPLVPSSQKALLLELKGLQEEPVEGFRVTLVDEGDLYNWEVAIFGPPNTYYEGGYFKARLKFPIDYPYSPPAFRFLTKMWHPNIYETGDVKISILHPPVDDPQSGELPSERWNPTQNVRTILLSVISLLNEPNTFCPANVDASVMYRKWKESKGKDREYTDIIRKQVLGTKVDAERDGVKVPTTLAEYSVKTKAPAPDEGSDLFYDDYYEDGEVEEEADSSFGDDEDDSGTEES
modifications: K93 (C93K) isopeptide-linked to the C terminus of donor ubiquitin; C138 (S138C) cross-linked by BMOE to Ub(K48C,G76S)-Brd4^BD2
notes: UBE2R1 (also known as Cdc34), human, full length; prepared by the same method as UBE2R1(C93K); Stood in the closed cryo-EM sample as part of the cross-linked conjugate m8; also called the E2; source: E. coli BL21(DE3) Rosetta II, purified (His-Trap, ULP1, SEC)
In the case of B1, the binding result in test [1] was “binds”.

B2: UBE2R1(C93K) (enzyme, human, UniProt P49427 1-236, looked up)
chain: B1 chain with C138S, S191C, S223C
modifications: K93 (C93K) isopeptide-linked to the C terminus of ^15N-labeled ubiquitin
notes: UBE2R1 (also known as Cdc34), human, full length; also called Cdc34 C93K; the E2; source: E. coli BL21(DE3) Rosetta II, purified (His-Trap, ULP1, SEC)
Turning to B2, the binding result in test [2] is on record as “binds”.
